From patent US20250332297A1, “DLL3-SPECIFIC BINDING CONSTRUCTS AND THEIR USE IN RADIOTHERAPY” (MOLECULAR PARTNERS AG, priority 2024, published 2025) come the findings set out here.

For this assay, the target named is T1, Human DLL3-ECD (Homo sapiens, UniProt Q9NYJ7).
T1 construct: the extracellular domain of DLL3 (DLL3-ECD) from human, cynomolgus monkey, mouse and pig
T1 sequence (Q9NYJ7 27-492 limits assumed): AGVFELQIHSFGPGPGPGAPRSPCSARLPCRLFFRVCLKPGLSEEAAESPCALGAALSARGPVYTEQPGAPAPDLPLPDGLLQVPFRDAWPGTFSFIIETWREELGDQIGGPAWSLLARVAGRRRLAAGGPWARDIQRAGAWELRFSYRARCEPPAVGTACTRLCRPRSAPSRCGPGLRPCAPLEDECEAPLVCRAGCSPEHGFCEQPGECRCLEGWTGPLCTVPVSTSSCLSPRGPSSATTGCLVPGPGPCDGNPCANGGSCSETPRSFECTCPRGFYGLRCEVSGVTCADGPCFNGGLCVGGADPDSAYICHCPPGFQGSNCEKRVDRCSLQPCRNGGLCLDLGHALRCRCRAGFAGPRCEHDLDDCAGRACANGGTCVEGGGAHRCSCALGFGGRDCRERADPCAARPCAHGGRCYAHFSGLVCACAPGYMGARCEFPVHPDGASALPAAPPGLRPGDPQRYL
Briefly: SPR, immobilized DARPin, binding of human DLL3-ECD (Example 17). As to conditions: immobilized biotinylated DARPin, DLL3-ECD as analyte, 1:1 Langmuir, Table 19. Here is the method:
Kinetic binding parameters and binding affinities of two domain (2D) ankyrin repeat protein MAM279 and single domain (1 D) ankyrin repeat protein MAM093 to DLL3 from different species were determined. The DLL3-specific ankyrin repeat domain of MAM093 is identical to the DLL3-specific ankyrin repeat domain comprised in MAM279.
SPR multi-trace analyses were performed similarly as described in Examples 1 and 11. Here, the binding kinetics of immobilized DARPin proteins to the extracellular domain of DLL3 (DLL3-ECD) from human, cynomolgus monkey, mouse and pig were determined. Various concentrations of recombinant DLL3-ECD starting from 500 nM were applied to immobilized biotinylated 2D DARPin (MAM279; SEQ ID NO: 11) or 1 D DARPin (MAM093; SEQ ID NO: 1) (both with a Glycine-Serine (GS) at the N-terminal end) for on-rate and off-rate measurements.
Streptavidin SAHC200M (Xantec) SPR chip was conditioned according to the manufacturer's protocol. Biotinylated DARPins were immobilized to a coating density of 27 resonance units (RU) for 1D DARPin and 25 RU for 2D DARPin. All analytes (3-fold dilution ranging from 500-6.17 nM) were injected in succession for 240 s and dissociation was recorded for 10800 s using a constant flow of 100 μl/min.

B1: MAM279: Two domain (2D) ankyrin repeat protein: serum albumin-specific domain (SEQ ID NO: 7), PT linker, DLL3-specific domain of MAM093 (protein)
chain: DLGKKLLEAARAGQDDEVRELLKAGADVNAKDYFSHTPLHLAARNGHLKIVEVLLKAGADVNAKDFAGKTPLHLAADAGHLEIVEVLLKAGADVNAQDIFGKTPADIAADAGHEDIAEVLQKAAGSPTPTPTTPTPTPTTPTPTPTGSDLGKKLLAAAAQGQDDEVRELLKAGANVNAKDLFGYTPLHLAAWRGHLEIVEVLLKAGADVNAKDAAGETPLHLAAWFGHLEIVEVLLKAGADVNAQDLQGKTPADLAAKEGHEDIAEVLQKAA
modifications: Ankyrin repeat protein (MAM279)
As to B1, binding was characterised by a dissociation constant (Kd) of 0.127 nM, the “Koff Human DLL3-ECD” value stood at 1.31e-05 s⁻¹ and the “Kon Human DLL3-ECD” value was 102000 M⁻¹ s⁻¹.
